± gives the standard deviation of the averaged measurements.
B1: library; a variant is named by its letters at N, in order (parent)
chain: GCUGUCACCGGUGCUUGGUACGUUAUAUUCAGCCGGUCUGAUGAGUCUNNNNNNAGACGAAACAGC

How the values were obtained:
(6R,S)-folinic acid [1] = variants of: B1; experiment: FACS-Seq fitted mean relative fluorescence mCherry/BFP without ligand (log10 relative fluorescence); HEK293T overexpressing SLC46A1; higher = higher reporter protein expression; conditions: without (6R,S)-folinic acid; ligand present: no
In short: (§1)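 Enriched HEK293T cells carrying, by lentivirus, an mCherry reporter with the ribozyme switch and an EF1α-BFP marker spent 48 h with or without ligand and were sorted into 6 bins by mCherry/BFP. MiSeq sequencing of PCR-amplified bin genomic DNA gave bin counts. Fluorescence was calculated as the fitted normal mean of those counts. Counts were binned on log10(mCherry/BFP), and means were scaled to five spiked-in control ribozymes.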

(6R,S)-folinic acid [2] = variants of: B1; experiment: normalized RNA/DNA level without ligand (relative to sTRSVctl = 100) (log10 (% of sTRSVctl)); HEK293T overexpressing SLC46A1; higher = less ribozyme self-cleavage, higher mRNA level; conditions: without (6R,S)-folinic acid; ligand present: no
In short: (§2)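 Library plasmids encoding reporter-linked ribozyme switches (mCherry, or eGFP for some folinic acid experiments) were transfected into HEK293T at 4 µg per 6-well well. Ligand, when used, was added 1 h before transfection. Total RNA was extracted with EDTA 72 h later, then reverse-transcribed, amplified, barcoded and sequenced. RNA level was RNA reads over DNA reads, divided by a spiked-in non-cleaving control (or the top 25 sequences), ×100, log10; only sequences with ≥100 DNA reads were kept.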

(6R,S)-folinic acid [3] = variants of: B1; experiment: FACS-Seq fitted mean relative fluorescence mCherry/BFP with ligand (log10 relative fluorescence); HEK293T overexpressing SLC46A1; ligand concentration (+) FACS-Seq: 6 mM; higher = higher reporter protein expression; conditions: with (6R,S)-folinic acid; ligand present: yes
In short: as §1

(6R,S)-folinic acid [4] = variants of: B1; experiment: normalized RNA/DNA level with ligand (relative to sTRSVctl = 100) (log10 (% of sTRSVctl)); HEK293T overexpressing SLC46A1; ligand concentration (+) RNA-Seq: 6 mM; higher = less ribozyme self-cleavage, higher mRNA level; conditions: with (6R,S)-folinic acid; ligand present: yes
In short: as §2

Row | Variant | FACS-Seq fitted mean (log10) ((6R,S)-folinic acid [1]) | normalized RNA/DNA level without ligand (log10) ((6R,S)-folinic acid [2]) | FACS-Seq fitted mean (log10) ((6R,S)-folinic acid [3]) | normalized RNA/DNA level with ligand (log10) ((6R,S)-folinic acid [4])
1 | UAAGUG | 0.502 ± 0.074 | 1.6686 ± 0.0006 | 0.881 ± 0.18 | 1.93 ± 0.055
2 | AUGAGC | -0.023 ± 0.066 | 1.998 ± 0.0094 | 0.192 ± 0.3 | 2.03 ± 0.028
3 | AUGAGA | 0.466 ± 0.025 | 1.944 ± 0.014 | 0.537 ± 0.077 | 2.014 ± 0.016
4 | AAGGGU | -0.0258 ± 0.095 | 1.952 ± 0.0044 | -0.308 ± 0.14 | 2.02 ± 0.032
5 | GUGAAU | 0.0592 ± 0.055 | 1.944 ± 0.0083 | 0.217 ± 0.099 | 2 ± 0.043
6 | AAGGAA | 0.513 ± 0.14 | 1.937 ± 0.01 | 0.429 ± 0.1 | 2 ± 0.023
7 | AAUGAA | 0.442 ± 0.1 | 1.956 ± 0.0073 | 0.46 ± 0.055 | 2 ± 0.029
8 | UGAUUA | -0.918 ± 0.18 | 1.951 ± 0.0029 | -0.48 ± 0.39 | 2.01 ± 0.037
9 | UGAUUG | 0.168 ± 0.056 | 1.768 ± 0.0099 | 0.541 ± 0.042 | 1.96 ± 0.025
10 | UAGUAA | 0.0937 ± 0.063 | 1.937 ± 0.009 | 0.531 ± 0.11 | 1.995 ± 0.016
11 | UAGUAG | 0.108 ± 0.076 | 1.68 ± 0.011 | 0.525 ± 0.14 | 1.93 ± 0.036
12 | CUGGAU | 0.302 ± 0.025 | 1.966 ± 0.018 | 0.179 ± 0.028 | 2.02 ± 0.022
13 | GUUAUG | 0.244 ± 0.011 | 1.929 ± 0.0065 | 0.431 ± 0.16 | 1.99 ± 0.0045
14 | AAUAAC | 0.221 ± 0.049 | 1.979 ± 0.0049 | 0.377 ± 0.048 | 1.99 ± 0.035
15 | AUUCAG | 0.281 ± 0.045 | 1.962 ± 0.0047 | 0.431 ± 0.097 | 2.009 ± 0.018
16 | UAGACA | 0.386 ± 0.0059 | 1.967 ± 0.0049 | 0.455 ± 0.17 | 2 ± 0.029
17 | UUUACC | 0.636 ± 0.0052 | 1.996 ± 0.018 | 0.724 ± 0.077 | 1.97 ± 0.036
18 | UGUUAC | 0.317 ± 0.16 | 1.947 ± 0.018 | 0.39 ± 0.013 | 1.99 ± 0.021

Row | Variant | FACS-Seq fitted mean (log10) ((6R,S)-folinic acid [1]) | normalized RNA/DNA level without ligand (log10) ((6R,S)-folinic acid [2]) | FACS-Seq fitted mean (log10) ((6R,S)-folinic acid [3]) | normalized RNA/DNA level with ligand (log10) ((6R,S)-folinic acid [4])
19 | AACUUA | 0.0993 ± 0.1 | 1.96 ± 0.032 | 0.0419 ± 0.12 | 1.98 ± 0.033
20 | UGGGAU | 0.3975 ± 0.0017 | 1.86 ± 0.022 | 0.547 ± 0.094 | 2 ± 0.046
21 | CAUAAA | 0.548 ± 0.05 | 1.9396 ± 0.0016 | 0.402 ± 0.075 | 1.96 ± 0.033
22 | UAACAC | 0.349 ± 0.11 | 2.008 ± 0.0029 | 0.223 ± 0.22 | 2.01 ± 0.046
23 | CAGGUA | 0.0884 ± 0.016 | 1.667 ± 0.0023 | 0.0948 ± 0.22 | 1.806 ± 0.013
24 | GCGUGG | 0.353 ± 0.032 | 1.968 ± 0.0025 | 0.444 ± 0.14 | 2.06 ± 0.046
25 | UCUCGA | 0.597 ± 0.079 | 2.071 ± 0.012 | 0.413 ± 0.029 | 2.03 ± 0.021
26 | UAAUAG | 0.255 ± 0.04 | 1.75 ± 0.028 | 0.58 ± 0.11 | 1.96 ± 0.057
27 | GAUUCU | 0.0461 ± 0.007 | 2.015 ± 0.0091 | -0.0821 ± 0.066 | 2.04 ± 0.042
28 | AGCGGU | 0.638 ± 0.18 | 1.952 ± 0.013 | 0.522 ± 0.022 | 2 ± 0.043
29 | CCACGU | 0.714 ± 0.093 | 2.053 ± 0.0035 | 0.4025 ± 0.00094 | 2.0397 ± 0.0012
30 | AGUUCA | 0.161 ± 0.15 | 2.005 ± 0.006 | -0.01 ± 0.41 | 2.008 ± 0.012
31 | GUCGCC | 0.306 ± 0.12 | 2.015 ± 0.012 | 0.25 ± 0.17 | 2.02 ± 0.052
32 | GAAAUG | 0.4312 ± 0.0042 | 1.954 ± 0.012 | 0.551 ± 0.067 | 2.03 ± 0.043
33 | UCAGGG | 0.0969 ± 0.0033 | 1.81 ± 0.032 | 0.351 ± 0.2 | 1.99 ± 0.041
34 | UAAGCG | 0.384 ± 0.026 | 1.736 ± 0.0051 | 0.777 ± 0.031 | 1.96 ± 0.045
35 | AAAGCA | 0.3689 ± 0.0015 | 1.975 ± 0.0052 | 0.575 ± 0.35 | 1.98 ± 0.044
36 | CGAACA | 0.317 ± 0.096 | 1.981 ± 0.0064 | 0.446 ± 0.21 | 1.985 ± 0.0071
